# T1: Granzyme A (GzmA) (human, UniProt P12544 29-262)
# T1 sequence: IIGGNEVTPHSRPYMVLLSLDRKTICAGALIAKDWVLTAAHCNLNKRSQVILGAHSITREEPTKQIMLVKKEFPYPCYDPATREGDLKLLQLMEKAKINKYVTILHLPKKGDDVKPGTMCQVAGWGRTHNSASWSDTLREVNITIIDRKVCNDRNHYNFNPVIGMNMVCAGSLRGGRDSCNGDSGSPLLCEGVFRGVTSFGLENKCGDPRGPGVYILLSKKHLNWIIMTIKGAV
# T2: Cathepsin G (CATG) (human, UniProt P08311 21-244)
# T2 sequence: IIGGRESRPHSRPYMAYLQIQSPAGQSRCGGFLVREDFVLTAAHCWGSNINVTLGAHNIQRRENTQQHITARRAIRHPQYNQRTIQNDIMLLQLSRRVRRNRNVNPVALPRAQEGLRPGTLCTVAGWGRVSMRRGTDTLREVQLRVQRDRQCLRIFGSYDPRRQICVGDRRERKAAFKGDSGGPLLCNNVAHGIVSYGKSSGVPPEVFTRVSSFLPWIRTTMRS
# Columns and labels:
# Granzyme B (GzmB) [1] = target: T3, Granzyme B (GzmB) (human, UniProt P10144 21-247); experiment: fluorescence polarization
# T3 sequence (P10144 21-247): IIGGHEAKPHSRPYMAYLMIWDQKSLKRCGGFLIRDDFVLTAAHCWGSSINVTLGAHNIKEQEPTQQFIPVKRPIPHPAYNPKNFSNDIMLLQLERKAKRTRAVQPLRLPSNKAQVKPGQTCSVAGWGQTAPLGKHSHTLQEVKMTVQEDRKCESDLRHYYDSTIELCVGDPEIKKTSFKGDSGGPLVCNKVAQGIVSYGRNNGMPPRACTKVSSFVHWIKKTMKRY
# HuR (human antigen R) = HuR (human antigen R) (UniProt Q15717 1-326); experiment: fluorescence polarization
# Sequence of HuR (human antigen R) (Q15717 whole entry): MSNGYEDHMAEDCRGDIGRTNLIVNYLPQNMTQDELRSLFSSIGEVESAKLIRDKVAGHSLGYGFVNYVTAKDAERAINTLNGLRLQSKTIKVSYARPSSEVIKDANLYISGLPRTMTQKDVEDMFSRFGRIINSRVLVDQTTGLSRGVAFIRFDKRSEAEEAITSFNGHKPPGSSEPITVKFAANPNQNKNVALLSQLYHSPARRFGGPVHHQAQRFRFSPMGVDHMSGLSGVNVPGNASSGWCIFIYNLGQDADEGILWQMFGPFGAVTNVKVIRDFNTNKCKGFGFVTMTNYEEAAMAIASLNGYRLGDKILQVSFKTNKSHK
# Granzyme A (GzmA) [2] = target: T1, Granzyme A (GzmA); experiment: fluorescence polarization
# Cathepsin G (CATG) [3] = target: T2, Cathepsin G (CATG); experiment: fluorescence polarization
# Neutrophil elastase (NE) [4] = target: T4, Neutrophil elastase (NE) (human, UniProt P08246 30-267); experiment: fluorescence polarization
# T4 sequence (P08246 30-267): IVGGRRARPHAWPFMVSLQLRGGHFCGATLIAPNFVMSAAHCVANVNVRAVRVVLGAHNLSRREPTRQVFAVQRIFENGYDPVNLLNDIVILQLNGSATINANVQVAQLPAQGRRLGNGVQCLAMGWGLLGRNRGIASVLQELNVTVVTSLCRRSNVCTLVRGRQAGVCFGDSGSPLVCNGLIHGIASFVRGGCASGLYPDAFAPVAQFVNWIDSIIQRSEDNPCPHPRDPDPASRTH
# Cathepsin G (CATG) [5] = target: T2, Cathepsin G (CATG); experiment: pull-down
# Neutrophil elastase (NE) [6] = target: T4, Neutrophil elastase (NE); experiment: pull-down
# Granzyme B (GzmB) [7] = target: T3, Granzyme B (GzmB); experiment: pull-down
# Pancreatic elastase (PE) = Pancreatic elastase (PE) (porcine, UniProt P00772 27-266); experiment: pull-down
# Sequence of Pancreatic elastase (PE) (P00772 27-266): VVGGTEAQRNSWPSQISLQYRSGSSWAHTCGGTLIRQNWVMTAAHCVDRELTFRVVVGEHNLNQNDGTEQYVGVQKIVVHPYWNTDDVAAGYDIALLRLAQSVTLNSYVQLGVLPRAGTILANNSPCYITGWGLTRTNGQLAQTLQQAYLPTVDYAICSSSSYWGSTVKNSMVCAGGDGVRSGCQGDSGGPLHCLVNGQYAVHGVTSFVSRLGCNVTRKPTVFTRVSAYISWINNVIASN
# Granzyme A (GzmA) [8] = target: T1, Granzyme A (GzmA); experiment: pull-down
# Histone H1 = Histone H1 (UniProt P07305 1-194); experiment: fluorescence polarization
# Sequence of Histone H1 (P07305 whole entry): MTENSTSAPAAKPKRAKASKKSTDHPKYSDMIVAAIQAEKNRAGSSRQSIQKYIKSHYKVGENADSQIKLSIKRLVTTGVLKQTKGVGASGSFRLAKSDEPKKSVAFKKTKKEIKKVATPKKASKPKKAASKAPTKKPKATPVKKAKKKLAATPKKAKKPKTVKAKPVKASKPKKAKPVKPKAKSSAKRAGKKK
Binder,Kd (Granzyme B (GzmB) [1]) [nM],Kd (HuR (human antigen R)) [nM],Kd (Granzyme A (GzmA) [2]) [nM],Kd (Cathepsin G (CATG) [3]) [nM],Kd (Neutrophil elastase (NE) [4]) [nM],binding result (Cathepsin G (CATG) [5]),binding result (Neutrophil elastase (NE) [6]),binding result (Granzyme B (GzmB) [7]),binding result (Pancreatic elastase (PE)),binding result (Granzyme A (GzmA) [8]),Kd (Histone H1) [nM]
UUUUUUUUUUUUUUUUUUUUUUUUUUUUUU (ssRNA) [rU(30)],159,121,232,,,,,,,,
UCUGUGAGUUGAACGCACACAUCACAAAGGA (ssRNA) [BB94 RNA],480,4800,1600,,,,,,,,
CCCAAGCUUAUUUAUUUAUUUAUUGCAGGUC (ssRNA) [AU RNA],651,492,401,165,602,,,,,,
TTTTTTTTTTTTTTTTTTTTTTTTT (ssDNA) [Oligo(dT)25 beads],,,,,,binds,binds,binds,no binding,binds,
TTTTTTTTTTTTTTTTTTTTTTTTTTTTTT (ssDNA) [dT(30)],45,,48,,,,,,,,
TCTGTGAGTTGAACGCACACATCACAAAGGAG (ssDNA) [BB94 ssDNA],35,,122,22,272,,,,,,10
BB94 dsDNA (dsDNA) DNA 1: TCTGTGAGTTGAACGCACACATCACAAAGGAG DNA 2: CTCCTTTGTGATGTGTGCGTTCAACTCACAGA,161,,120,35,607,,,,,,9
